Assay results taken from patent publication US20050032689A1, “Methods for treatment or diagnosis of disease or disorders associated with an APB domain” (New York University, priority 1994, published 2005).
Each block holds one molecule with its values, some of them ahead of it.

Columns and labels:
[1] = target: T1, binding of Shc 1-209 to the EGF receptor (Mus musculus, UniProt P98083); assay: Phosphotyrosine inhibition of Shc 1-209 binding to EGF receptor; conditions: 30 mM phosphotyrosine; results not shown
T1 construct: we generated Shc 1-209 as a GST fusion protein; made in house; host or cells: bacteria (pGSTag vector)
T1 sequence (P98083 111-319): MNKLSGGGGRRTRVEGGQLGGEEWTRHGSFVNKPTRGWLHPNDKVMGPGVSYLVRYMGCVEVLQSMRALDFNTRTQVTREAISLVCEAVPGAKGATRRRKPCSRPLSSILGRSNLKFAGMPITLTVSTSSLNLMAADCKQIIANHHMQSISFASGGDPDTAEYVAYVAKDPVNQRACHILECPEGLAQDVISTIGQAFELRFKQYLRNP
Description: (§1) Accordingly we examined the binding of the Shc amino terminus (hereafter referred to as Shc 1-209) in further detail. First we determined if the binding of Shc 1-209 was dependent on EGF receptor activation. To perform these studies we generated Shc 1-209 as a GST fusion protein and examined its ability to bind EGF receptor from lysates of NIH 3T3 cells. […] We asked if this binding was dependent on receptor autophosphorylation. EGF receptor was immunoprecipitated from unstimulated cells and then tyrosine-phosphorylated in vitro by adding Mn^2+ and ATP. […] To confirm that the binding was dependent on autophosphorylation, we examined the binding of Shc 1-209 to EGF receptor mutants lacking autophosphorylation sites. […] This may represent a difference in the affinity of interactions or a basic difference in the molecular mechanism of EGF receptor interaction with Shc 1-209 versus SH2 domains.

[2] = target: T2, binding of the Grb7 SH2 domain to EGF receptor (Mus musculus, UniProt Q03160); assay: Phosphotyrosine inhibition of Grb7 SH2 domain binding to EGF receptor; conditions: 30 mM phosphotyrosine; results not shown
T2 construct: made in house; host or cells: bacteria
T2 sequence (Q03160 434-530 limits assumed): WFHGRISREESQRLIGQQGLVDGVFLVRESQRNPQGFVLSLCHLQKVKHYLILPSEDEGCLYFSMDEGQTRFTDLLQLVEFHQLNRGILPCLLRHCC
Description: as §1

[3] = target: T3, EGF receptor (Homo sapiens, UniProt P00533); assay: Binding of GST fusion proteins on glutathione-agarose beads to EGF receptor from HER14 cell lysates, immunoblot; conditions: GST fusion protein, lysates of EGF-stimulated or unstimulated cells
T3 construct: expressed in transfected cells; host or cells: HER14 (NIH 3T3 cells expressing human EGF receptor)
Method: FIGS. 2A and 2B. Association of GST-Shc 1-209 with the EGF Receptor (EGFR). A, HER14 lysates from either EGF-stimulated (+) or unstimulated (−) cells (5×10^6 cells) were incubated with 3 μg of GST fusion protein immobilized on glutathione-agarose beads. The bound proteins were washed, subjected to SDS-PAGE, transferred to nitrocellulose and immunoblotted with anti-EGF receptor antibody, anti-C (anti-EGFR). HER14 lysate (4×10^5 cells) was run directly on the gel in lanes 5 and 6. B, unstimulated HER14 lysates (5×10^6 cells) were immunoprecipitated with anti-EGFR antibody (mAb 108). The immobilized receptor was then phosphorylated (+) by the addition of 5 mM MnCl2 and 50 μM ATP or left unphosphorylated (−) by adding MnCl2 alone. Bacterial lysates containing 5 μg of GST, GST-Grb7, and GST-Shc 1-209 were then diluted in 1 ml of 1% Triton X-100 lysis buffer, added to the immobilized receptor and incubated at 4° C. for 90 min. The bound proteins were washed and together with 40 μl of the post-binding supernatant separated by SDS-PAGE and transferred to nitrocellulose. The bound fractions (left panel) and supernatants (right panel) were immunoblotted with anti-GST. FIGS. 4A, 4B, 4C and 4D. Binding of Shc fragments to growth factor receptors. A, schematic diagram illustrating the Shc fragments used in binding studies. Full length murine p52^shc is indicated in (i) while (ii)-(vi) were generated as GST fusion proteins for use in receptor binding studies. B, association of various GST fusion proteins with activated EGF receptor (EGFR). Binding was performed as in FIG. 2A with the exception that all lysates were stimulated with EGF. All studies used 3 μg of fusion proteins except for the Shc SH2 where 10 μg was used. Immunoblotting was performed with anti-phosphotyrosine. C, binding of Shc fusion proteins to NIH 3T3 cells expressing a HER1/2 chimera. This chimera consists of the EGF receptor extracellular binding domain and the intracellular region of HER2/neu. After stimulation of these cells with EGF (200 ng/ml) lysates were prepared and binding as well as blotting studies were performed as in B using anti-phosphotyrosine antibody. D, binding of Shc 1-209 to TrkA. Beads containing 10 μg of GST fusion proteins Shc 1-209, phospholipase C-γ (PLC-γ) SH2 (contains both N and C SH2 domains), or GST alone were added to lysates from 2×10^7 PC12 cells stimulated with 50 ng/ml nerve growth factor (lanes 1, 2, and 4). The binding of the same amount of lysate to 2 μg of anti-TrkA antibody is shown as a positive control and to indicate the position of TrkA on the blot (lane 3). Otherwise, the binding and blotting were performed as in B using anti-phosphotyrosine antibody. […]

[4] = system: HER2/neu (HER1/2 chimera); assay: Binding of GST-Shc fusion proteins to HER1/2 chimera from NIH 3T3 lysates, anti-phosphotyrosine blot; conditions: EGF-stimulated NIH 3T3 lysates
Method: FIGS. 4A, 4B, 4C and 4D. Binding of Shc fragments to growth factor receptors. A, schematic diagram illustrating the Shc fragments used in binding studies. Full length murine p52^shc is indicated in (i) while (ii)-(vi) were generated as GST fusion proteins for use in receptor binding studies. B, association of various GST fusion proteins with activated EGF receptor (EGFR). Binding was performed as in FIG. 2A with the exception that all lysates were stimulated with EGF. All studies used 3 μg of fusion proteins except for the Shc SH2 where 10 μg was used. Immunoblotting was performed with anti-phosphotyrosine. C, binding of Shc fusion proteins to NIH 3T3 cells expressing a HER1/2 chimera. This chimera consists of the EGF receptor extracellular binding domain and the intracellular region of HER2/neu. After stimulation of these cells with EGF (200 ng/ml) lysates were prepared and binding as well as blotting studies were performed as in B using anti-phosphotyrosine antibody. D, binding of Shc 1-209 to TrkA. Beads containing 10 μg of GST fusion proteins Shc 1-209, phospholipase C-γ (PLC-γ) SH2 (contains both N and C SH2 domains), or GST alone were added to lysates from 2×10^7 PC12 cells stimulated with 50 ng/ml nerve growth factor (lanes 1, 2, and 4). The binding of the same amount of lysate to 2 μg of anti-TrkA antibody is shown as a positive control and to indicate the position of TrkA on the blot (lane 3). Otherwise, the binding and blotting were performed as in B using anti-phosphotyrosine antibody. […] Protein concentration was determined by SDS-PAGE (polyacrylamide gel electrophoresis) using bovine serum albumin as a standard. […]

inhibition of binding of Shc 1-209 to the EGF receptor [1]: partially inhibit | inhibition of binding of the Grb7 SH2 domain to the EGF receptor [2]: completely inhibited
Molecule: N[C@@H](Cc1ccc(OP(=O)(O)O)cc1)C(=O)O [phosphotyrosine]

B1: Shc 46-209: amino acids encoding the amino terminus of p46Shc, GST fusion protein (protein, UniProt P98083 46-209, looked up, fragment)
chain: LPPLPGDDSPTTLCSFFPRMSNLKLANPAGGRLGPKGEPGKAAEDGEGSAGAALRDSGLLPLLQDMNKLSGGGGRRTRVEGGQLGGEEWTRHGSFVNKPTRGWLHPNDKVMGPGVSYLVRYMGCVEVLQSMRALDFNTRTQVTREAISLVCEAVPGAKGATRRR
modifications: GST fusion
notes: amino acids encoding the amino terminus of p46Shc, GST fusion protein
binding to EGF receptor [3]: can bind both EGF receptor and HER2/neu receptor | binding to HER2/neu [4]: can bind both EGF receptor and HER2/neu receptor

binding to EGF receptor [3]: did not bind growth factor receptors | binding to HER2/neu [4]: did not bind growth factor receptors
B2: Shc 85-209: Shc construct with a more severe amino-terminal deletion, GST fusion protein (protein, UniProt P98083 85-209, looked up, fragment)
chain: GKAAEDGEGSAGAALRDSGLLPLLQDMNKLSGGGGRRTRVEGGQLGGEEWTRHGSFVNKPTRGWLHPNDKVMGPGVSYLVRYMGCVEVLQSMRALDFNTRTQVTREAISLVCEAVPGAKGATRRR
modifications: GST fusion
notes: Shc construct with a more severe amino-terminal deletion, GST fusion protein
